Reference: publication PMC8667049

T1: GST-IRP1 (Homo sapiens, UniProt P21399 1-889)
T1 sequence: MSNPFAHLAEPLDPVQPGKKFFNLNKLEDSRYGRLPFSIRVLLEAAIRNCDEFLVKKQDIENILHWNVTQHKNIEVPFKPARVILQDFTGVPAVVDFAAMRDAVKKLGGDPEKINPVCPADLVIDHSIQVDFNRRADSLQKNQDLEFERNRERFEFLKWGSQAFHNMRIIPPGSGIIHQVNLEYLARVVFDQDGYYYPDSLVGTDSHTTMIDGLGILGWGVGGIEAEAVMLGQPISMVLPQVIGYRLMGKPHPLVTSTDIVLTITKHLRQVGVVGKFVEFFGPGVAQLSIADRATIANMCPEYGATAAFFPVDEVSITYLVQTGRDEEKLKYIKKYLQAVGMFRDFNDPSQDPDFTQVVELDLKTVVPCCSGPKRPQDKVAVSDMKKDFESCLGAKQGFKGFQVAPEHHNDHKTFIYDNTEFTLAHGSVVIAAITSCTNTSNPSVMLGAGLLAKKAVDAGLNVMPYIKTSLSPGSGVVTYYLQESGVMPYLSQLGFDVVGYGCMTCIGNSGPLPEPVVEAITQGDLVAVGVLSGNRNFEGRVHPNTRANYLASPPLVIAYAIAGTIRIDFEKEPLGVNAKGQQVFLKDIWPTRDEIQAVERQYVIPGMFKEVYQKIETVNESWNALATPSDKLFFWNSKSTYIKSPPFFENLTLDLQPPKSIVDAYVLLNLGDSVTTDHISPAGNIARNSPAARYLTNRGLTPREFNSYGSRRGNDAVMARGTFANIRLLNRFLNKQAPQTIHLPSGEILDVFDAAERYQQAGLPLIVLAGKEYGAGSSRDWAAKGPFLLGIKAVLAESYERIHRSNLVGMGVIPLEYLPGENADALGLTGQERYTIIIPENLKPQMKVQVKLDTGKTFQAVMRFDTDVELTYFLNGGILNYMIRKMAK

T2: GST-IRP2 (Homo sapiens, UniProt P48200 1-963)
T2 sequence: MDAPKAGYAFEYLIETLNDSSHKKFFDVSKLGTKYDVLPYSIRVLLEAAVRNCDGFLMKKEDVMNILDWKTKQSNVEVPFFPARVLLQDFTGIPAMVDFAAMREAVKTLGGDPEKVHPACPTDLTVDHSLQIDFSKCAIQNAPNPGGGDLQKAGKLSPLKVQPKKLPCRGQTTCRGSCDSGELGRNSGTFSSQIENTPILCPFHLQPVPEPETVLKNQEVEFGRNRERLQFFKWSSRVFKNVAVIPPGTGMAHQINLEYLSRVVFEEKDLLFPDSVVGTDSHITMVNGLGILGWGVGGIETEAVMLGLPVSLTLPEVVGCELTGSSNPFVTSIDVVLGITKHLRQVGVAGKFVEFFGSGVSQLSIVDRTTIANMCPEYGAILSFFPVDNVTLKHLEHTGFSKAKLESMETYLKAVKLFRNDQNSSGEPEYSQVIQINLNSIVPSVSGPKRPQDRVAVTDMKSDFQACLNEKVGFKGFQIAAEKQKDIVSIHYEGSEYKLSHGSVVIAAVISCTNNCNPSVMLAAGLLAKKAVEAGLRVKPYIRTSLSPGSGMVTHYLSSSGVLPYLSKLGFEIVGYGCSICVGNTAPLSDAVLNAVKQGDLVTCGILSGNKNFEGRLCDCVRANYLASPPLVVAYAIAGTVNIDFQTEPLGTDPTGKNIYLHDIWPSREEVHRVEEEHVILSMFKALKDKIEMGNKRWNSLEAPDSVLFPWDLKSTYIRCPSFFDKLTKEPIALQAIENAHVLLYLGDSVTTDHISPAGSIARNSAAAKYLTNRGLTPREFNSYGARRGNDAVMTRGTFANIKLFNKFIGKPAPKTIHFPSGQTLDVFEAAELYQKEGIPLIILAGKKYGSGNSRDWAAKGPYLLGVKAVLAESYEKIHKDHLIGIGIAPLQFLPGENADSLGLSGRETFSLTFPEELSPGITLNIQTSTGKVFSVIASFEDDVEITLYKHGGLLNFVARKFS


What was measured:
GST-IRP1 = target: T1, GST-IRP1; test: EMSA
GST-IRP2 = target: T2, GST-IRP2; test: EMSA

Row | Binder | binding result (GST-IRP1) | binding result (GST-IRP2)
1 | GAGGGGGCUUGCACAGAGUUGGAGCCAGAGG (structured_RNA) [CD63 5' UTR IRE] | binds | binds
2 | CCUGGUUUUUAAGGAGUGUCGCCAGAGUGCCGCGAAUGAAAAA (ssRNA) [non-IRE control RNA] | no binding | no binding
